Target: purified, recombinant myristoylated HIV-1 MA protein (HIV-1 pNL4-3)

Work on “HIV-1 SP2 added to MA on lipid monolayers (peptide)” yielded a share of sub-images that contributed to mature-like MA lattice classes on lipid monolayers in the presence of SP2 (7% mature-like and 7% immature-like without SP2; no immature-like classes with SP2) of 47%.

Source: paper PMC11964938
